Results on two molecules are retold here after PMC3342958, “IDN2 and Its Paralogs Form a Complex Required for RNA–Directed DNA Methylation”.

The target of data set [1] is T1, IDP1 (Arabidopsis thaliana, UniProt Q9S9P3 1-634).
T1 sequence: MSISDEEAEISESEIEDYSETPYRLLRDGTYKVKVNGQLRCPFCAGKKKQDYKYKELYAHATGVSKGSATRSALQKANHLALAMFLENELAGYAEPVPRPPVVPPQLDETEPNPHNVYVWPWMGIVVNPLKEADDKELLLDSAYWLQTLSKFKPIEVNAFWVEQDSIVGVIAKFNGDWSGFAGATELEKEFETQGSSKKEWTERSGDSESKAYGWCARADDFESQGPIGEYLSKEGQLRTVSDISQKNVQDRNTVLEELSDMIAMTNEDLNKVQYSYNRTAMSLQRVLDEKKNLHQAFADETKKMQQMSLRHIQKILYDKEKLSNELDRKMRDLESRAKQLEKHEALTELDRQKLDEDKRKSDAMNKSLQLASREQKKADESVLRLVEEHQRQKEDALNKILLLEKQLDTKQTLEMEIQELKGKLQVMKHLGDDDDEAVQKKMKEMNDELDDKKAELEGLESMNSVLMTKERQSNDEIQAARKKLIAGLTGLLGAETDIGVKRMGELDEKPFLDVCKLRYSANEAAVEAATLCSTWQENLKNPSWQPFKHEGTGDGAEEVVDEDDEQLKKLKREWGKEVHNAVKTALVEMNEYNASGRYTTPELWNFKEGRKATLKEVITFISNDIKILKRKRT
Briefly: EMSA; 12.5 mM MgCl2; up to 6.4 ug protein; 25 mM HEPES pH 7.6, 50 mM KCl, 0.1 mM EDTA, 12.5 mM MgCl2, 1 mM DTT, 0.5% BSA, 5% glycerol, 2 ug protein, room temperature 30 min; 4% native PAGE. To be noted: protein: recombinant, tags: His (pET28a), label: 5'-32P.

Data set [2] addresses T2, IDP2 (Arabidopsis thaliana, UniProt F4JH53 1-635).
T2 sequence: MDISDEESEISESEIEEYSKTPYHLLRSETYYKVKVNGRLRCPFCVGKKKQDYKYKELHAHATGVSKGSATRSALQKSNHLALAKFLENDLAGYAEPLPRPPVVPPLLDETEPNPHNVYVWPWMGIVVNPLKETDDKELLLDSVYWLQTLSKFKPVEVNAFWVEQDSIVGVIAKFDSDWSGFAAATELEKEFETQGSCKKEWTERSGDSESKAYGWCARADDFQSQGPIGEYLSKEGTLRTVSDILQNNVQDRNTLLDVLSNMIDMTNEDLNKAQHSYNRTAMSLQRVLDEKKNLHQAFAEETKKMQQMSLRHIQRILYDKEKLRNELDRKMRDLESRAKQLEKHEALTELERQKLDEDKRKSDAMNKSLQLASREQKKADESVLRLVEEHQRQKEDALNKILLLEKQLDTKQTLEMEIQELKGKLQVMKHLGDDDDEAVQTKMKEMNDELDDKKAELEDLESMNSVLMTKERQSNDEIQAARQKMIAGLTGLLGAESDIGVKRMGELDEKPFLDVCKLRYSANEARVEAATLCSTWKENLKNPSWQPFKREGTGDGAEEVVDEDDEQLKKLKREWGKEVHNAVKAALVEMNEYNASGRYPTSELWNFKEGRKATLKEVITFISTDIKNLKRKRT
Described as above. The following applies: protein: recombinant, tags: His (pET28a), label: 5'-32P.

The target in data set [3] is T3, IDN2 (Arabidopsis thaliana, UniProt Q8VZ79 1-647).
T3 sequence: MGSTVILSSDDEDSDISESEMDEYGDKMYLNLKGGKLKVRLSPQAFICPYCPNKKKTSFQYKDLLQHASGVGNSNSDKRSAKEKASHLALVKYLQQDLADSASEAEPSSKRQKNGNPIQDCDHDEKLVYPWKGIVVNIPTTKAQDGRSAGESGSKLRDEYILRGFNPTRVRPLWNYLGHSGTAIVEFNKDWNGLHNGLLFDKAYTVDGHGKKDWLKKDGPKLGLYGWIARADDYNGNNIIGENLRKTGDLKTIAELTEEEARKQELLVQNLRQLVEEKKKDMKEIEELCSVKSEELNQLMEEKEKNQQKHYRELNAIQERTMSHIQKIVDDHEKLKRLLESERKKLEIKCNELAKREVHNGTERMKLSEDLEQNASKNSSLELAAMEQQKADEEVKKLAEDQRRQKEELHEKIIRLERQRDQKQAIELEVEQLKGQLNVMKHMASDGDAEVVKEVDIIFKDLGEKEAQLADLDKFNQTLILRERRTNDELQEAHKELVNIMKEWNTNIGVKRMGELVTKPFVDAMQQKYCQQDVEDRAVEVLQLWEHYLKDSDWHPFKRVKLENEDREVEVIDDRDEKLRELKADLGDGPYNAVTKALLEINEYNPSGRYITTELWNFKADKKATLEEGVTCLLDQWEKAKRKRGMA
Briefly: EMSA; 12.5 mM MgCl2; 25 mM HEPES pH 7.6, 50 mM KCl, 0.1 mM EDTA, 12.5 mM MgCl2, 1 mM DTT, 0.5% BSA, 5% glycerol, 2 ug protein, room temperature 30 min; 4% native PAGE. To be noted: protein: recombinant, tags: His (pET28a), label: 5'-32P.

The target in data set [4] is T4, IDN2-a (XS+coiled-coil) (Arabidopsis thaliana, UniProt Q8VZ79 1-511).
T4 sequence: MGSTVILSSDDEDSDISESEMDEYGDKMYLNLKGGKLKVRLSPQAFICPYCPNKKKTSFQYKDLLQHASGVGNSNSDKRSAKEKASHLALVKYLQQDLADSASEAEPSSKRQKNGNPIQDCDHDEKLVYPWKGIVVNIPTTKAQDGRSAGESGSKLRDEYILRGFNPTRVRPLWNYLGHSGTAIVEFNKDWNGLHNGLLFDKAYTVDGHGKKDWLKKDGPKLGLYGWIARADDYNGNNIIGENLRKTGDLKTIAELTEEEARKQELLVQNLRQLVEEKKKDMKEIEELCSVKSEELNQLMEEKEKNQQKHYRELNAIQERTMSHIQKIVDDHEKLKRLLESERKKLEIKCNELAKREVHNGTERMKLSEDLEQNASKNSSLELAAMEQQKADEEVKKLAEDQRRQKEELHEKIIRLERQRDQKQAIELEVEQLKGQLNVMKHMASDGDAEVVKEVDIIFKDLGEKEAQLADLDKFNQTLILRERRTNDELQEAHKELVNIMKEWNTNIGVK
Described as above. To be noted: protein: recombinant, tags: His (pET30a), label: 5'-32P.

B1: RD29A dsRNA, 5' overhang (dsRNA)
RNA 1: ACGCUUCAUACGUGUCCCUUUAUCUCUCUCAGUCU
RNA 2: AGAGACUGAGAGAGAUAAAGGGACACGUAUGAAGC
Take B1: the binding result in data set [1] (5' overhangs 2 nt at both ends) is on record as “no binding”; in data set [2] (5' overhangs 2 nt at both ends), “no binding”; in data set [3] (5' overhangs 2 nt at both ends), “binds”; in data set [4] (5' overhangs 2 nt at both ends) it was “binds”.

B2: RD29A dsRNA, blunt (dsRNA)
RNA 1: ACGCUUCAUACGUGUCCCUUUAUCUCUCUCAGUCU
RNA 2: AGACUGAGAGAGAUAAAGGGACACGUAUGAAGCGU
Regarding B2, the binding result in data set [1] (blunt) was “no binding”; in data set [2] (blunt), “no binding”; in data set [3] (blunt), “binds”; in data set [4] (blunt) it was “binds”.
